{"source": "patent US4746508A", "about": "“Drug administration” (Beth Israel Hospital Assn., priority 1984, dated 1988)", "key": {"[1]": {"assay": "HPLC k' factor value (hydrophobicity) of unconjugated steroid", "format": "physicochemical", "settings": "octadecylsilane column, 75% methanol in water, apparent pH 5.0", "procedure": "Preferably the steroid used in the invention is characterized in that the unconjugated derivative of the steroid is retained on a hydrophobic column for a length of time sufficient to produce a k' factor value of at least about 4, the k' factor value being obtained by subjecting a monomeric solution of 1 mg/ml of such steroid derivative to high-performance liquid column chromatography at 3,000 psi, using a 250×4.6 mm column having octadecylsilane-coated 5 μm silica particles as the stationary phase and a mobile phase, delivered at 1.0 ml/min., consisting of 75% methanol in ater, v/v, buffered with 0.005M KH2 PO4 /H3 PO4 to give an apparent pH value, as measured using a glass electrode, of 5.0, the k' factor value being defined by [formula] where t0 is the retention time in the column of the solvent front and tr is the retention time in the column of the steroid derivative as measured by obtaining the elution profile of the steroid derivative by absorbance at 210 nm.\nThe structure of the steroid molecule affects its chemical properties and thus its functioning as a drug transporting molecule. We believe that all of the steroid molecules used in the invention facilitate transport by self-associating to form reversed micelles within the membrane across which the drug is being transported; these reversed micelles, it is believed, function as pores, allowing the drug to pass through. A measure of a given steroid molecule's ability to form such reversed micelles is the hydrophobicity of the unconjugated form of the molecule, a property which can be quantified using the k' factor value, which is computed by observing the steroid's retention time in a high-performance liquid chromatography (HPLC) column under the conditions described above. As mentioned above, the k' value of the unconjugated derivative of the steroid should be at least about 4 for the steroid to be suitable in the therapeutic compositions of the invention.\nThe k' and CMT of the steroids used in the compositions of the invention are influenced by whether the steroid is conjugated at C21 and, if so, by the nature of the conjugating group. Additionally, a polar group at position 16 is essential for solubility (See position E on formula 1). Because the k' factor value is influenced by the polarity of any conjugating group, unconjugated derivatives must be used in numerical comparisons involving steroids which are conjugated with different groups, or comparisons involving both conjugated and unconjugated steroids. Overall hydrophobicity and k' factor value generally decrease as the polarity of the conjugating group increases. However, such decrease is not a reflection of the hydrophobicity of the steroid nucleus. […]"}, "[2]": {"settings": "in vivo", "experimental": "Corticotropin releasing-factor (CRF, a hormone of MW 4,000) (Dr. George Chrousos, National Institute of Health, Bethesda, MD) was dissolved in 0.15 NaCl and mixed with the 2% solution of sodium tauro-24,25-dihydrofusidate. CRF was also prepared without adjuvant. Two sheep were administered 350 mg ketamine intravenously and a total of 460 μg of CRF as a liquid, by drops into each side of the nose of the sheep at time 0. The dose of CRF was approximately 10 μg/kg body weight."}, "[3]": {"assay": "Intranasal administration of proinsulin to sheep (insulin RIA adjusted for cross-reactivity)", "format": "in vivo", "settings": "for Proinsulin (μU/ml above baseline): Sheep 196 Study 25, 1.5 mg into each nostril", "procedure": "Commercially available proinsulin (Eli Lilly & Co., Indianapolis, Ind.) was mixed with the sodium tauro-24,25-dihydrofusidate solution or in 0.15M NaCl, pH 7.6 to give a final concentration of 6 mg/ml of proinsulin and 1% (w/v) sodium tauro-24,25-dihydrofusidate. Sheep were administered by nasal drops 1.5 mg (250 μl) of the solution into each nostril at time 0. Sheep 25 was administered proinsulin without adjuvant as described above."}}}
{"compound": "CC(=O)O[C@@H]1[C@H]2[C@H](C)[C@H](O)CC[C@]2(C)[C@@H]2CC[C@H]3/C(=C(\\CCC=C(C)C)C(=O)O)[C@@H](OC(C)=O)C[C@]3(C)[C@@]2(C)[C@H]1O", "note": "[cephalosporin P1]", "values": [{"measurement": "k' factor value", "setting": "[1]", "value": 9.5}]}
{"compound": "Corticotropin releasing-factor without tauro-24,25-dihydrofusidate: corticotropin releasing-factor, a hormone of MW 4,000, prepared without adjuvant", "values": [{"measurement": "increase of CRF level", "setting": "[2]", "value": "increased only slightly"}]}
{"compound": "CC(=O)O[C@H]1C[C@@]2(C)[C@@H](C[C@@H](O)[C@H]3[C@@]4(C)CC[C@@H](O)[C@@H](C)[C@@H]4CC[C@@]32C)/C1=C(\\CCC=C(C)C)C(=O)O", "note": "[fusidic acid, reference compound]", "values": [{"measurement": "k' factor value", "setting": "[1]", "value": 20.7}]}
{"compound": "Proinsulin without sodium tauro-24,25-dihydrofusidate: commercially available proinsulin (Eli Lilly) in 0.15M NaCl, pH 7.6, without adjuvant", "values": [{"measurement": "Proinsulin (μU/ml above baseline)", "setting": "[3]; 0 min", "value": 0, "unit": "μU/ml"}, {"measurement": "Proinsulin (μU/ml above baseline)", "setting": "[3]; 10 min", "value": 2.8, "unit": "μU/ml"}, {"measurement": "Proinsulin (μU/ml above baseline)", "setting": "[3]; 15 min", "value": 28, "unit": "μU/ml"}, {"measurement": "Proinsulin (μU/ml above baseline)", "setting": "[3]; 20 min", "value": 56, "unit": "μU/ml"}, {"measurement": "Proinsulin (μU/ml above baseline)", "setting": "[3]; 30 min", "value": 22, "unit": "μU/ml"}, {"measurement": "Proinsulin (μU/ml above baseline)", "setting": "[3]; 60 min", "value": 0, "unit": "μU/ml"}, {"measurement": "Proinsulin (μU/ml above baseline)", "setting": "[3]; 90 min", "value": 0, "unit": "μU/ml"}, {"measurement": "Proinsulin (μU/ml above baseline)", "setting": "[3]; 120 min", "value": 0, "unit": "μU/ml"}, {"measurement": "Proinsulin (μU/ml above baseline)", "setting": "[3]; 180 min", "value": 0, "unit": "μU/ml"}, {"measurement": "Proinsulin (μU/ml above baseline)", "setting": "[3]; 240 min", "value": 2.8, "unit": "μU/ml"}, {"measurement": "Proinsulin (μU/ml above baseline)", "setting": "[3]; +5 min", "value": 0, "unit": "μU/ml"}, {"measurement": "Proinsulin (μU/ml above baseline)", "setting": "[3]; -15 min", "value": 0, "unit": "μU/ml"}, {"measurement": "absorption of nasally administered proinsulin", "setting": "[3]; sheep, nasal drops", "value": "absorbed at a slower rate and to a much reduced extent"}]}
{"compound": "CC(=O)OC1CC2(C)C(CC(O)C3C4(C)CCC(OC(C)=O)C(C)C4CCC32C)C1=C(CCC=C(C)C)C(=O)O", "note": "(stereo not drawn) [3-acetoxyl-fusidic acid]", "values": [{"measurement": "k' factor value", "setting": "[1]", "value": 26.4}]}
{"compound": "CC(=O)O[C@H]1C[C@@]2(C)[C@@H](C[C@@H](O)[C@H]3[C@@]4(C)CC[C@@H](O)[C@@H](C)[C@@H]4CC[C@@]32C)/C1=C(\\CCCC(C)C)C(=O)O", "note": "[24,25-dihydrofusidic acid]", "values": [{"measurement": "k' factor value", "setting": "[1]", "value": 27.1}]}
